Laboratory results published in patent publication EP4703380A1, “INTEGRIN-TARGETING ANTIBODIES AND USE THEREOF” (NIO BIOPHARMACEUTICALS. INC., priority 2023, dated 2024).
“And” between values parts separate entries of the source, which are not always exact repeats. Identical values can stand only once.

Key:
BT20 = test: AlamarBlue cell growth inhibition, BT20; assay type: cell-based; conditions: TNBC, BT20, 4 days
Procedure: (§1) First, an appropriate number of cells (3x10^3 to 1x10^4 cells) for each cancer cell line were dispensed into each well of a 96-well plate and cultured for 24 hours at 37°C, 5% CO2, and then the medium was replaced with fresh growth medium. Then, sequentially diluted antibody-drug conjugates were added to each well, and the cells were cultured for 4 days under 37°C, 5% CO2 conditions, and then treated with AlamarBlue (Invitrogen). The fluorescence values were measured at Ex530 and Em590 every 2, 4, and 6 hours (PerkinElmer Victor x4). The obtained fluorescence values were analyzed with Prism4 (GraphPad) to determine the EC50 value. Each experiment was repeated three times.

Panc-1 [1] = test: AlamarBlue cell growth inhibition, Panc-1; assay type: cell-based; conditions: Pancreatic, Panc-1, 4 days
Procedure: as §1

MDA-MB-231 cells = test: Triple-negative breast cancer xenograft efficacy; assay type: in vivo, mice; conditions: MDA-MB-231 xenograft
Procedure: Triple-negative breast cancer (TNBC) MDA-MB-231 cells (2x10^6 cells) were mixed with Matrigel at a 1:1 (v/v) ratio and injected subcutaneously into BALB/c nude or NOD/SCID mice (Nara Bio). When the tumor volume reached 100 mm^3, the PS4-vcMMAE antibody-drug conjugate was administered intraperitoneally at 5 mg/kg or 10 mg/kg once every 5 days for a total of 5 times. 2-3 mice were used in each group. All animal experiments were conducted in accordance with protocols approved by the Institutional Animal Care and Use Committee (IACUC) of Kangwon National University (KW-210728-3).

MDA-MB-231 = test: AlamarBlue cell growth inhibition, MDA-MB-231; assay type: cell-based; conditions: TNBC, MDA-MB-231, 4 days
Procedure: as §1

Aspc-1 = test: AlamarBlue cell growth inhibition, Aspc-1; assay type: cell-based; conditions: Pancreatic, Aspc-1, 4 days
Procedure: as §1

MKN45 = test: AlamarBlue cell growth inhibition, MKN45; assay type: cell-based; conditions: Stomach, MKN45, 4 days
Procedure: as §1

UMUC-3 = test: AlamarBlue cell growth inhibition, UMUC-3; assay type: cell-based; conditions: bladder, UMUC-3, 4 days
Procedure: as §1

MDA-MB-231 ITGA KO = test: AlamarBlue cell growth inhibition, ITGA3 knockout negative control line; assay type: cell-based; conditions: breast cancer cell line with ITGA3 subunit knocked out
Procedure: MDA-MB-231 cells with ITGA3 gene knockout were generated as follows. sgRNAs targeting exon 17 ([…]) of the ITGA3 gene were subcloned using the CRISPR-Cas9-2A-Puro V2.0 (Addgene) system. MDA-MB-231 cells were transfected with CRISPR-Cas9/sgRNA and cultured at 37°C, 5% CO2 for 72 hours. Afterwards, puromycin, the selection marker for the CRISPR-Cas9 vector, was added at a concentration of 250 ng/mL and selected for 18 days. Then, the target protein knockout efficiency was measured using flow cytometry (FACS calibur, FACS Aria, BD Biosciences), and knockout cells were isolated. MDA-MB-231 cells with ITGA3 knockout, i.e., MDA-MB-231/ITGA3 KO cell lines, were analyzed by flow cytometry using 3 µg/mL PS4 antibody and anti-human Fc-gamma specific Alexa Fluor-647 (1:800 dilution, Jackson ImmunoResearch Laboratories Inc.). In addition, MDA-MB-231/ITGA3 KO cell lysate (30 µg) was separated by SDS-PAGE and analyzed by Western blot using anti-ITGA3 (Antibodies-online) and anti-mouse Fc-gamma specific-HRP. Sample loading was compared using anti-beta-actin.
First, an appropriate number of cells (3x10^3 to 1x10^4 cells) for each cancer cell line were dispensed into each well of a 96-well plate and cultured for 24 hours at 37°C, 5% CO2, and then the medium was replaced with fresh growth medium. […] The fluorescence values were measured at Ex530 and Em590 every 2, 4, and 6 hours (PerkinElmer Victor x4). […]

MDA-MB-453 = test: AlamarBlue cell growth inhibition, MDA-MB-453; assay type: cell-based; conditions: TNBC, MDA-MB-453, 4 days
Procedure: as §1

CoCaB1 = test: AlamarBlue cell growth inhibition, CoCaB1; assay type: cell-based; conditions: bladder, CoCaB1, 4 days
Procedure: as §1

[2] = Real-time thermal stability (SYPRO Orange); assay type: physicochemical; conditions: 2 µM sample, 10.0°C to 95°C
Procedure: The method and principle of the experiment were as follows. As the temperature increases, the folded protein denatures, exposing hydrophobic regions, which bind to the SYPRO Orange detection dye, resulting in fluorescence. The point at 1/2 RFUmax is designated as the melting point (Tm). 22.5 µL of the assay sample and 2.5 µL of 50x SYPRO stock solution were added to a 96-well PCR plate (VOLO Semi-Skirted PCR Plate) so that the final concentration of the sample used in the experiment was 2 µM, and the fluorescence was measured using Quantstudio Real-Time PCR (Thermo Fisher scientific) while increasing the temperature by 0.5°C per 10 s from 10.0°C to 95°C. Each sample was tested three times. The fluorescence value of the antibody buffer was set as the background and subtracted, and the value with the greatest slope in the […] of the fluorescence value (dTRFU) was analyzed as the Tm of the corresponding protein.

SW780 = test: AlamarBlue cell growth inhibition, SW780; assay type: cell-based; conditions: bladder, SW780, 4 days
Procedure: as §1

MDA-MB-468 = test: AlamarBlue cell growth inhibition, MDA-MB-468; assay type: cell-based; conditions: TNBC, MDA-MB-468, 4 days
Procedure: as §1

PANC-1 [3] = test: Pancreatic cancer xenograft efficacy; assay type: in vivo, mice; conditions: PANC-1 xenograft, NOD/SCID
Procedure: PANC-1 (3 × 10^6) cancer cells were subcutaneously injected into NOD/SCID (female 5-week-old) mice. When the tumor volume reached […], the PS4-vcMMAE conjugate was intraperitoneally injected at 5 mg/kg or 10 mg/kg once every 5 days for a total of 3 times. The control group was treated with PBS, and the efficacy was evaluated with 3-4 mice per group. After the experiment, the tumors were excised, and the size of the tumor tissues in each experimental group was compared. All animal experiments were performed in accordance with the protocol approved by the Institutional Animal Care and Use Committee (IACUC) of Kangwon National University (KW-210728-3).

A549 = test: AlamarBlue cell growth inhibition, A549; assay type: cell-based; conditions: Lung, A549, 4 days
Procedure: as §1

SCaBER = test: AlamarBlue cell growth inhibition, SCaBER; assay type: cell-based; conditions: bladder, 4 days
Procedure: as §1

B1: PS4-vcMMAE: PS4 WT maxibody conjugated with vcMMAE (monomethyl auristatin E); average DAR 4.09 (conjugate)
VH: QVQLVQSGGGLVNPGGSLRLSCAASGFPFSDHYMSWIRQAPGKGLEWVSYISNRGYTIHYADFVKGRFTISRDNAENTLYLQMNSLRAEDTAVYYCARDRGTIDAFDLWGQGTMVTVSS
VL: QSALTQPASVSGSPGQSITIPCSGTSDDIGRYNYVSWYQQHPGKAPKLLIYDVTRRSSGVSSHFSGSKSGSTASLIISGLQADDEADYFCSSFTNNRTVVFGGGTKLTVL
modifications: left off: things letters cannot carry; another chain or arm of the molecule; a dimerising Fc or GST; small tags and cut ends
For B1, the IC50 (BT20) was 134 ± 43.4 nM, the “Maximum (% inhibition)” value (BT20) was 79.6±11.3% and the IC50 (Panc-1 [1]) was 2.7 ± 1.21 nM. The “Maximum (% inhibition)” value (Panc-1 [1]) was 73.78±2.18%, the “size and weight of the extracted tumor tissue reduced” value (MDA-MB-231 cells; BALB/c nude or NOD/SCID mice, intraperitoneally 5 mg/kg or 10 mg/kg once every 5 days, 5 times, vs control group) was “approximately 55%” and the “tumor size compared to the time of drug administration” value (MDA-MB-231 cells; NOD/SCID, 10 mg/kg) was “no significant difference”. For the same molecule, the tumor growth (MDA-MB-231 cells; intraperitoneally 5 mg/kg or 10 mg/kg once every 5 days, 5 times, vs control group) was “inhibited in a PS4-MMAE dose-dependent manner”, the IC50 (MDA-MB-231) was 0.77 ± 0.63 nM and the “Maximum (% inhibition)” value (MDA-MB-231) was 77.97±2.03%. The “Maximum (% inhibition)” value (Aspc-1) was 51.78±25.44%, the IC50 (MKN45) was 14.1 ± 4.52 nM and the “Maximum (% inhibition)” value (MKN45) was 55.65±6.45%. The IC50 (UMUC-3) was 2.1 ± 1.2 nM, the “Maximum (% inhibition)” value (UMUC-3) was 90.75±4.02% and the anticancer efficacy (MDA-MB-231 ITGA KO) was “no anticancer efficacy was observed”. The IC50 (MDA-MB-453) was 9.79 nM and 18.8 nM, the “Maximum (% inhibition)” value (MDA-MB-453) was 96.2±0.36% and 87.9±0.61% and the IC50 (CoCaB1) was 2.21 ± 1.4 nM. For the same molecule, the “Maximum (% inhibition)” value (CoCaB1) was 95.48±2.44%, the Tm [2] was 64.67±0.24 °C and the IC50 (SW780) was 1.78 ± 1.05 nM. For the same molecule, the “Maximum (% inhibition)” value (SW780) was 90.43±2.32%, the “Maximum (% inhibition)” value (MDA-MB-468) was 89.88±2.5% and the tumor size reduced (PANC-1 [3]; 10 mg/kg) was “at least 60%”. The tumor growth (PANC-1 [3]; intraperitoneally 5 mg/kg or 10 mg/kg once every 5 days, 3 times, vs control group (PBS)) was “inhibited in a PS4-MMAE dose-dependent manner”, the IC50 (A549) was 5.22 ± 2.17 nM and the “Maximum (% inhibition)” value (A549) was 77.32±1.02%. The IC50 (SCaBER) was 1.88 ± 0.79 nM and the “Maximum (% inhibition)” value (SCaBER) was 89.71±0.61%.
